# Experimental data as given in PMC5303882, “Structure of the homodimeric androgen receptor ligand-binding domain” (Nature Communications, 2017).
# B1: Synthetic UBA3 peptide S59-V72 (LxxLL motif) (peptide)
# peptide: STESLQFLLDTCKV
# notes: also called UBA3-derived peptide; UBA3 59S-72V peptide; source: synthetic peptide, custom-synthesized at Pepmic
# Biological target: T1, Recombinant human androgen receptor ligand-binding domain (AR-LBD, residues 662-919), DHT-bound (human, UniProt P10275 662-919)
# T1 construct: also called AR/NR3C4 LBD; liganded AR-LBD; source: recombinant, expressed as a fusion protein with thioredoxin, purified to homogeneity
# Assay: SPR; BIAcore T200, 25 °C; DHT-bound AR-LBD amine-coupled to a CM5 chip at about 6,800 RU, UBA3 peptide as analyte; 50 mM HEPES pH 7.2, 50 mM Li2SO4, 5% glycerol, 1 mM DTT, 5 mM DHT; 1:1 Langmuir model; triplicate
# Conditions: both partners purified
binder,measurement,value
B1,Kd,30.6 ± 0.7 nM
